Here are results for 1 molecule from PMC3514405.

The series has as its target BLV nucleocapsid protein (NC) (Bovine leukemia virus, UniProt P03344). The series is described as follows: ITC. A general note: In ITC the heat of successive injections is recorded.

BLV nucleocapsid protein (NC), sequence (P03344 324-392, tags left off): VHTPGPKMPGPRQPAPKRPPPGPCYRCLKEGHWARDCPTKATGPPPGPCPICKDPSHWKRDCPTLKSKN

CAACUCUCUG (ssRNA) [SLV-VI linker (10 nt)] came in with a Kd of 92 ± 16 nM.

The term Kd denotes the free concentration of one partner at which half of the binding sites on the other are occupied at equilibrium, for simple one-to-one binding.
